Assay results taken from paper PMC5156543 (Molecular Biology of the Cell, 2016).

Target: T1, Vps35-3xHA (S. cerevisiae, UniProt P34110 1-944)
T1 sequence: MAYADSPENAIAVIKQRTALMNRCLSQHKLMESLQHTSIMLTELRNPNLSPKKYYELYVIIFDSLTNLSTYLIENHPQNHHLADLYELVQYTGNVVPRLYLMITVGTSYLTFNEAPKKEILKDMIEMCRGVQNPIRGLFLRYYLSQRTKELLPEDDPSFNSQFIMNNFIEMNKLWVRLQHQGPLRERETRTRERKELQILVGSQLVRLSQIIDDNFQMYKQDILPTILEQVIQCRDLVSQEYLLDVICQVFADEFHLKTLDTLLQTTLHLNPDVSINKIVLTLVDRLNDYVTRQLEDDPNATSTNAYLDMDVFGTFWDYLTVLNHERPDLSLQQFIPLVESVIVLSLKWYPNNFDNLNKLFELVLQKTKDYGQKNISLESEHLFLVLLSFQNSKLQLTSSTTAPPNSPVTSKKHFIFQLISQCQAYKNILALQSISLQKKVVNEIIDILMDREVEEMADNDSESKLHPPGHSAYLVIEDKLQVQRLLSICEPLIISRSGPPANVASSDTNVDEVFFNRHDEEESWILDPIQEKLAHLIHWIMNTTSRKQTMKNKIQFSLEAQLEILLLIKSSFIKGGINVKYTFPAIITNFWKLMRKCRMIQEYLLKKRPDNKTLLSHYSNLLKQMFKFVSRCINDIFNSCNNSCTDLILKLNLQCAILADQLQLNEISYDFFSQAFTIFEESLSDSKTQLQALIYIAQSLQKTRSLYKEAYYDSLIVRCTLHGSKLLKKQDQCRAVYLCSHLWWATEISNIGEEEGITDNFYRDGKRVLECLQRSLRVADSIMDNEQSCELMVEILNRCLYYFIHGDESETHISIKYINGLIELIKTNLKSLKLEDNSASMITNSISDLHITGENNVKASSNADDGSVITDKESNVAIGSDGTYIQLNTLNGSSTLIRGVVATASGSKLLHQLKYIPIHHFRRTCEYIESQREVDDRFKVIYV
Assay: co-IP

B1: Δ63-125Chs3-GFP (natural protein)
chain: MTGLNGDDPDDYYLNLNQDEESLLRSRHSVGSGAPHRQGSLVRPERSRLNNPDNPHFYYAQKDEGVAEDEFDKDGDVDNFEESSTQPINKSIKPLRKETNDTLSFWQMYCYFITFWAPAPILAFCGMPKKERQMAWREKVALISVILYIGAIVAFLTFGFTKTVCSSSKLRLKNNEVSTEFVVINGKAYELDTSSRSGIQDVEVDSDTLYGPWSDAGKDASFLFQNVNGNCHNLITPKSNSSIPHDDDNNLAWYFPCKLKNQDGSSKPNFTVENYAGWNCHTSKEDRDAFYGLKSKADVYFTWDGIKNSSRNLIVYNGDVLDLDLLDWLEKDDVDYPVVFDDLKTSNLQGYDLSLVLSNGHERKIARCLSEIIKVGEVDSKTVGCIASDVVLYVSLVFILSVVIIKFIIACYFRWTVARKQGAYIVDNKTMDKHTNDIEDWSNNIQTKAPLKEVDPHLRPKKYSKKSLGHKRASTFDLLKKHSSKMFQFNESVIDLDTSMSSSLQSSGSYRGMTTMTTQNAWKLSNENKAVHSRNPSTLLPTSSMFWNKATSSPVPGSSLIQSLDSTIIHPDIVQQPPLDFMPYGFPLIHTICFVTCYSEDEEGLRTTLDSLSTTDYPNSHKLLMVVCDGLIKGSGNDKTTPEIALGMMDDFVTPPDEVKPYSYVAVASGSKRHNMAKIYAGFYKYDDSTIPPENQQRVPIITIVKCGTPAEQGAAKPGNRGKRDSQIILMSFLEKITFDERMTQLEFQLLKNIWQITGLMADFYETVLMVDADTKVFPDALTHMVAEMVKDPLIMGLCGETKIANKAQSWVTAIQVFEYYISHHQAKAFESVFGSVTCLPGCFSMYRIKSPKGSDGYWVPVLANPDIVERYSDNVTNTLHKKNLLLLGEDRFLSSLMLKTFPKRKQVFVPKAACKTIAPDKFKVLLSQRRRWINSTVHNLFELVLIRDLCGTFCFSMQFVIGIELIGTMVLPLAICFTIYVIIFAIVSKPTPVITLVLLAIILGLPGLIVVITATRWSYLWWMCVYICALPIWNFVLPSYAYWKFDDFSWGDTRTIAGGNKKAQDENEGEFDHSKIKMRTWREFEREDILNRKEESDSFVA
- level of coIP relative to wild-type Chs3: ~0.25 of the level with wild-type Chs3
